Measurements taken from patent publication US20200397896A1, “Combination Therapies Comprising Daratumumab, Bortezomib, Thalidomide and Dexamethasone and Their Uses” (Janssen Biotech, Inc., priority 2019, published 2020).

Columns and labels:
[1] = system: patients with relapsed or refractory multiple myeloma who had received at least 3 prior lines of therapy; experiment: SIRIUS open-label trial, DARZALEX monotherapy efficacy; type: in vivo, human
Text: (§1) Treatment continued until unacceptable toxicity or disease progression.

[2] = system: patients with relapsed or refractory multiple myeloma who had received at least 2 different cytoreductive therapies; experiment: GEN501 open-label dose escalation trial, DARZALEX monotherapy efficacy; type: in vivo, human
Text: as §1

[3] = system: anti-daratumumab antibodies; experiment: Immunogenicity in clinical trials; type: in vivo, human
Text: As with all therapeutic proteins, there is the potential for immunogenicity. The detection of antibody formation is highly dependent on the sensitivity and specificity of the assay. Additionally, the observed incidence of antibody (including neutralizing antibody) positivity in an assay may be influenced by several factors including assay methodology, sample handling, timing of sample collection, concomitant medications, and underlying disease. For these reasons, comparison of the incidence of antibodies to daratumumab in the studies described below with the incidence of antibodies in other studies or to other products may be misleading. […] One patient administered DARZALEX as combination therapy, developed transient neutralizing antibodies against daratumumab. However, this assay has limitations in detecting anti-daratumumab antibodies in the presence of high concentrations of daratumumab; therefore, the incidence of antibody development might not have been reliably determined.

[4] = DARZALEX solution pH and storage of diluted solution; type: physicochemical
Text: Prepare the solution for infusion using aseptic technique as follows: • Calculate the dose (mg), total volume (mL) of DARZALEX solution required and the number of DARZALEX vials needed based on patient actual body weight. • Check that the DARZALEX solution is colorless to pale yellow. […] Infusion bags/containers must be made of either polyvinylchloride (PVC), polypropylene (PP), polyethylene (PE) or polyolefin blend (PP+PE). Dilute under appropriate aseptic conditions. Discard any unused portion left in the vial. • Gently invert the bag/container to mix the solution. […] The diluted solution may develop very small, translucent to white proteinaceous particles, as daratumumab is a protein. […] (59° F.-77° F.) and in room light. Diluted solution may be kept at room temperature for a maximum of 15 hours (including infusion time). • If not used immediately, the diluted solution can be stored prior to administration for up to 24 hours at refrigerated conditions 2° C.-8° C. (36° F.-46° F.) and protected from light.
DARZALEX is supplied as a colorless to pale yellow preservative-free solution for intravenous infusion in single-dose vials. The pH is 5.5.

[5] = system: patients with newly diagnosed multiple myeloma eligible for ASCT; details: in vivo
Text: Safety evaluations will include adverse event monitoring, physical examinations, electrocardiogram monitoring (ECGs), clinical laboratory parameters (hematology and chemistry), vital sign measurements, and Eastern Cooperative Oncology Group (ECOG) performance status.
In general, adverse events that occurred during the induction/consolidation and maintenance stages will be summarized separately. Treatment-emergent adverse events for each stage will be defined as events that occur or worsen after administration of the first dose of during that stage and through 30 days after the last dose of study drug in that stage and before the next phase of treatment begins.
Melphalan 200 mg/m^2 was pre-ASCT high-dose therapy.

[6] = system: adult patients with relapsed and refractory multiple myeloma; details: human, in vivo
Text: (§2) The median duration of exposure was 3.3 months (range: 0.03 to 20.04 months).

[7] = system: patients with multiple myeloma; details: human, in vivo
[8] = human, in vivo
[9] = Clinical pharmacokinetics of daratumumab; details: 1 to 24 mg/kg monotherapy or 1 to 16 mg/kg combination therapy
[10] = system: adult patients with relapsed and refractory multiple myeloma; experiment: DARZALEX monotherapy safety, three open-label clinical trials
Text: as §2

[11] = system: patients with multiple myeloma; experiment: Clinical trials pooled (monotherapy and combination treatments; N=2,066), safety
[12] = monotherapy 16 mg/kg, N = 156, treatment-emergent laboratory abnormality

In the case of “DARZALEX: IgG1κ human monoclonal antibody against CD38; HC SEQ ID NO: 9, LC SEQ ID NO: 10”, the “median duration of response” value [1] is reported as 7.4 months, the “median time to response” value [1] is reported as 1 month and the “Overall response rate (ORR)” value ([1]; N = 106) is reported as “(29.2%)”. The “Partial response (PR)” value ([1]; N = 106) was “(17.0%)”, the “Stringent complete response (sCR)” value ([1]; N = 106) was “(2.8%)” and the “Very good partial response (VGPR)” value ([1]; N = 106) was “(9.4%)”. For the same substance, the “CR, number of patients” value ([2]; GEN501) was 1, the “VGPR, number of patients” value ([2]; GEN501) was 3 and the “median duration of response” value ([2]; GEN501) was “not estimable”. For the same substance, the “median time to response” value ([2]; GEN501) was 1 month, the Overall response rate ([2]; GEN501, 42 patients, 16 mg/kg) was 36% and the “patients positive for anti-daratumumab antibodies” value ([3]; 111 evaluable monotherapy patients) was “none”. For the same substance, the “patients positive for anti-daratumumab antibodies” value ([3]; 1,050 evaluable combination therapy patients) was 2, the “patients who developed transient neutralizing antibodies against daratumumab” value ([3]; combination therapy) was “One” and the “storage time of diluted solution at refrigerated conditions” value ([4]; 2° C.-8° C., protected from light) was “up to 24 hours”. For the same substance, the “storage time of diluted solution at room temperature (including infusion time)” value ([4]; 15° C.-25° C., room light, diluted in 0.9% Sodium Chloride) was ≤ 15 h, the pH of solution ([4]; single-dose vial solution) was 5.5 and the “IRRs Grade 3 or 4 at re-initiation following ASCT” value [5] was < 1%. The “incidence of IRRs, first infusion following ASCT” value [5] was 11%, the herpes zoster [6] was 3% and the “Hepatitis B virus reactivation” value [7] was “less than 1%”. The “linear clearance, mean±SD” value [8] was 171.4 ± 95.3 mL/day, the “terminal half-life associated with linear clearance, mean±SD” value [8] was 18 ± 9 days and the “time to steady state into the every 4-week dosing period” value [8] was “approximately 5 months”. The “trough serum concentration (Cmin) at the end of weekly dosing, mean±SD” value [8] was 573 ± 332 µg/mL, the volume of distribution [8] was 4.7 ± 1.3 L and the “area under the concentration-time curve (AUC) versus dose” value [9] was “increases more than proportionally”. The “Serious adverse reaction: general physical health deterioration” value ([10]; monotherapy) was 3%, the “Serious adverse reaction: pneumonia” value ([10]; monotherapy) was 6% and the “Serious adverse reaction: pyrexia” value ([10]; monotherapy) was 3%. For the same substance, the “discontinuations due to adverse reactions” value ([10]; monotherapy) was 4%, the “treatment delay due to adverse reactions” value ([10]; monotherapy) was 15% and the “Arthralgia, Any Grade” value ([10]; monotherapy 16 mg/kg, N = 156) was 17%. For the same substance, the “Arthralgia, Grade 3” value ([10]; monotherapy 16 mg/kg, N = 156) was 0%, the “Arthralgia, Grade 4” value ([10]; monotherapy 16 mg/kg, N = 156) was 0% and the “Back pain, Any Grade” value ([10]; monotherapy 16 mg/kg, N = 156) was 23%. The “Back pain, Grade 3” value ([10]; monotherapy 16 mg/kg, N = 156) was 2%, the “Back pain, Grade 4” value ([10]; monotherapy 16 mg/kg, N = 156) was 0% and the “Chills, Any Grade” value ([10]; monotherapy 16 mg/kg, N = 156) was 10%. For the same substance, the “Chills, Grade 3” value ([10]; monotherapy 16 mg/kg, N = 156) was 0%, the “Chills, Grade 4” value ([10]; monotherapy 16 mg/kg, N = 156) was 0% and the “Constipation, Any Grade” value ([10]; monotherapy 16 mg/kg, N = 156) was 15%. For the same substance, the “Constipation, Grade 3” value ([10]; monotherapy 16 mg/kg, N = 156) was 0%, the “Constipation, Grade 4” value ([10]; monotherapy 16 mg/kg, N = 156) was 0% and the “Cough, Any Grade” value ([10]; monotherapy 16 mg/kg, N = 156) was 21%. For the same substance, the “Cough, Grade 3” value ([10]; monotherapy 16 mg/kg, N = 156) was 0%, the “Cough, Grade 4” value ([10]; monotherapy 16 mg/kg, N = 156) was 0% and the “Decreased appetite, Any Grade” value ([10]; monotherapy 16 mg/kg, N = 156) was 15%. The “Decreased appetite, Grade 3” value ([10]; monotherapy 16 mg/kg, N = 156) was 1%, the “Decreased appetite, Grade 4” value ([10]; monotherapy 16 mg/kg, N = 156) was 0% and the “Diarrhea, Any Grade” value ([10]; monotherapy 16 mg/kg, N = 156) was 16%. The “Diarrhea, Grade 3” value ([10]; monotherapy 16 mg/kg, N = 156) was 1%, the “Diarrhea, Grade 4” value ([10]; monotherapy 16 mg/kg, N = 156) was 0% and the “Dyspnea, Any Grade” value ([10]; monotherapy 16 mg/kg, N = 156) was 15%. For the same substance, the “Dyspnea, Grade 3” value ([10]; monotherapy 16 mg/kg, N = 156) was 1%, the “Dyspnea, Grade 4” value ([10]; monotherapy 16 mg/kg, N = 156) was 0% and the “Fatigue, Any Grade” value ([10]; monotherapy 16 mg/kg, N = 156) was 39%. The “Fatigue, Grade 3” value ([10]; monotherapy 16 mg/kg, N = 156) was 2%, the “Fatigue, Grade 4” value ([10]; monotherapy 16 mg/kg, N = 156) was 0% and the “Headache, Any Grade” value ([10]; monotherapy 16 mg/kg, N = 156) was 12%. The “Headache, Grade 3” value ([10]; monotherapy 16 mg/kg, N = 156) was 1%, the “Headache, Grade 4” value ([10]; monotherapy 16 mg/kg, N = 156) was 0% and the “Hypertension, Any Grade” value ([10]; monotherapy 16 mg/kg, N = 156) was 10%. For the same substance, the “Hypertension, Grade 3” value ([10]; monotherapy 16 mg/kg, N = 156) was 5%, the “Hypertension, Grade 4” value ([10]; monotherapy 16 mg/kg, N = 156) was 0% and the “Infusion reaction, Any Grade” value ([10]; monotherapy 16 mg/kg, N = 156) was 48%. The “Infusion reaction, Grade 3” value ([10]; monotherapy 16 mg/kg, N = 156) was 3%, the “Infusion reaction, Grade 4” value ([10]; monotherapy 16 mg/kg, N = 156) was 0% and the “Musculoskeletal chest pain, Any Grade” value ([10]; monotherapy 16 mg/kg, N = 156) was 12%. The “Musculoskeletal chest pain, Grade 3” value ([10]; monotherapy 16 mg/kg, N = 156) was 1%, the “Musculoskeletal chest pain, Grade 4” value ([10]; monotherapy 16 mg/kg, N = 156) was 0% and the “Nasal congestion, Any Grade” value ([10]; monotherapy 16 mg/kg, N = 156) was 17%. For the same substance, the “Nasal congestion, Grade 3” value ([10]; monotherapy 16 mg/kg, N = 156) was 0%, the “Nasal congestion, Grade 4” value ([10]; monotherapy 16 mg/kg, N = 156) was 0% and the “Nasopharyngitis, Any Grade” value ([10]; monotherapy 16 mg/kg, N = 156) was 15%. The “Nasopharyngitis, Grade 3” value ([10]; monotherapy 16 mg/kg, N = 156) was 0%, the “Nasopharyngitis, Grade 4” value ([10]; monotherapy 16 mg/kg, N = 156) was 0% and the “Nausea, Any Grade” value ([10]; monotherapy 16 mg/kg, N = 156) was 27%. The “Nausea, Grade 3” value ([10]; monotherapy 16 mg/kg, N = 156) was 0%, the “Nausea, Grade 4” value ([10]; monotherapy 16 mg/kg, N = 156) was 0% and the “Pain in extremity, Any Grade” value ([10]; monotherapy 16 mg/kg, N = 156) was 15%. For the same substance, the “Pain in extremity, Grade 3” value ([10]; monotherapy 16 mg/kg, N = 156) was 1%, the “Pain in extremity, Grade 4” value ([10]; monotherapy 16 mg/kg, N = 156) was 0% and the “Pneumonia, Any Grade” value ([10]; monotherapy 16 mg/kg, N = 156) was 11%. The “Pneumonia, Grade 3” value ([10]; monotherapy 16 mg/kg, N = 156) was 6%, the “Pneumonia, Grade 4” value ([10]; monotherapy 16 mg/kg, N = 156) was 0% and the “Pyrexia, Any Grade” value ([10]; monotherapy 16 mg/kg, N = 156) was 21%. The “Pyrexia, Grade 3” value ([10]; monotherapy 16 mg/kg, N = 156) was 1%, the “Pyrexia, Grade 4” value ([10]; monotherapy 16 mg/kg, N = 156) was 0% and the “Vomiting, Any Grade” value ([10]; monotherapy 16 mg/kg, N = 156) was 14%. The “Vomiting, Grade 3” value ([10]; monotherapy 16 mg/kg, N = 156) was 0%, the “Vomiting, Grade 4” value ([10]; monotherapy 16 mg/kg, N = 156) was 0% and the “Anemia, Any Grade” value [10, 12] was 45%. For the same substance, the “Anemia, Grade 3” value [10, 12] was 19%, the “Anemia, Grade 4” value [10, 12] was 0% and the “Lymphopenia, Any Grade” value [10, 12] was 72%. The “Lymphopenia, Grade 3” value [10, 12] was 30%, the “Lymphopenia, Grade 4” value [10, 12] was 10% and the “Neutropenia, Any Grade” value [10, 12] was 60%. The “Neutropenia, Grade 3” value [10, 12] was 17%, the “Neutropenia, Grade 4” value [10, 12] was 3% and the “Thrombocytopenia, Any Grade” value [10, 12] was 48%. For the same substance, the “Thrombocytopenia, Grade 3” value [10, 12] was 10%, the “Thrombocytopenia, Grade 4” value [10, 12] was 8% and the “Serious adverse reactions, patients” value ([10]; monotherapy, 156 patients) was 33%. For the same substance, the “Grade 3/4 infusion reaction at Week 2 or subsequent infusions” value ([11]; N=2,066) was “Less than 1%”, the “incidence of any grade infusion reactions, Week 2 infusion” value ([11]; N=2,066) was 2% and the “incidence of any grade infusion reactions, first (16 mg/kg, Week 1) infusion” value ([11]; N=2,066) was 37%. The “incidence of any grade infusion reactions, subsequent infusions (cumulatively)” value ([11]; N=2,066) was 6%, the “incidence of infusion modification due to reactions” value ([11]; N=2,066) was 36% and the “patients who experienced an infusion reaction” value ([11]; clinical trials, all patients) was “approximately half”. The “persistence of positive indirect antiglobulin test after the last infusion” value ([11]; human, in vivo) was “up to 6 months”.
